Target: anti-HA1H TCR expressed on SupT1 cells
Test: cell-based or functional assay

Q: With “MHC I CAR with β2m-41BBz: HLA-A02 / β2m-41BBz chimeric construct loaded with recombinant HA1H peptide, on transduced PBMC CAR-T cells (from UniProt P61769 21-119; P20963 31-51; Q07011 214-255; P20963 52-163) (peptide-MHC)” as the substance, how does the EC50 for HA1H peptide (pulsing concentration) in killing of SupT1 anti-HA1H TCR target cells, 48 h co-culture, 2:1 effector to target, flow cytometry read?
A: 0.1 µM

Q: For “MHC I CAR with β2m-CD3z: HLA-A02 / β2m-CD3z chimeric construct loaded with recombinant HA1H peptide, on transduced PBMC CAR-T cells (from UniProt P61769 21-119; P20963 31-51; P20963 52-163) (peptide-MHC)”, which EC50 for HA1H peptide (pulsing concentration) in killing of SupT1 anti-HA1H TCR target cells, 48 h co-culture, 2:1 effector to target, flow cytometry is on record?
A: 0.5 µM

From patent US20200255494A1
